According to patent US20230183305A1, “KERATIN BD-11, PREPARATION METHOD THEREFOR AND PHARMACEUTICAL COMPOSITION AND USE THEREOF” (INSTITUTE OF MATERIA MEDICA, CHINESE ACADEMY OF MEDICAL …, priority 2019, published 2023):

Tested on: tracheal phenol red excretion in ICR mice
Assay: Expectorant test, phenol red excretion method in mice
Type: in vivo, mouse
Settings: for Phenol red excretion: X±SEM, n=10
Description: • Animals: male ICR mice; • Drugs and reagents: Mucosolvan (ambroxol hydrochloride tablets), phenol red, sodium bicarbonate, protein BD-11; • Instruments: centrifuge (Sigma-3K15 type), balance (XS105DU type), Microplate tester (BIO-TEK type).
Experiment grouping: • Solvent control group; • Mucosolvan 30 mg/kg group; • Protein BD-11, 20 mg/kg group, 50 mg/kg group.
The animals were fasted and water was taken freely 16 hours before the experiment. Orally administered Mucosolvan and different doses of protein BD-11 (administration volume 10 ml/kg) in groups, and the solvent control group was given the same volume of distilled water. One hour later, 2.5% phenol red solution was injected intraperitoneally. Mice were sacrificed by neck dislocation after 30 minutes. Take a trachea from below the thyroid cartilage to the branch of the trachea, and put the trachea into 3 ml 5% NaHCO3 solution and let it stand for 3 hours. Take 1 ml of the supernatant and centrifuge at 3000 rpm for 5 minutes. Measure and record the absorbance at 546 nm. According to the standard curve of phenol red, the excretion of phenol red was calculated.
Record the time point of oral administration, the time point of intraperitoneal injection of 2.5% phenol red solution, and the time point of taking the trachea respectively; The absorbance of each group of samples was measured by the microplate reader at 546 nm, Calculate the excretion of phenol red according to the standard curve of phenol red. Calculate the mean and standard error of the data in each group, and use TTEST to compare the solvent control group with other groups, and P<0.05 is considered as a significant difference.
Give Mucosolvan (30 mg/kg) and different doses of protein BD-11 (20 mg/kg, 50 mg/kg). One hour later, 2.5% phenol red solution was intraperitoneally injected, and 30 minutes later, the mice were sacrificed by neck dislocation. Take the trachea from below the thyroid cartilage to the branch of the trachea, put the trachea into 3 ml of 5% NaHCO3 solution and let it stand for 3 hours, take 1 ml of supernatant, centrifuge at 3000 rpm for 5 minutes, measure and record the absorbance at 546 nm. According to the standard curve of phenol red, the excretion of phenol red was calculated.

B1: BD-11: recombinant keratin, amino acid sequence SEQ ID NO:1, expressed in E. coli, band around 59 kD; Example 4 batch tested (protein, listed as Bos taurus)
chain: MSRQSTITFQTSSRRGFSTASATTPATSRSRFSSASVTHSPAGSGGLGRISGFGSRSLYNLGGTKRVSISGCGSNFRSGFGGRASSGFGVSGGFGYGGGIGGGHGGCGFSVCPPGGIQEVTVNQSLLTPLNLQIDPNIQRVRKEEREQIKTLNNKFASFIDKVRFLEQQNKVLETKWSLLQEQGTRTVRQSLEPFFEAYITDLRRQLDSITTERGRLDAELRTMQDVVEDFKVRYEDEINKRTAAENEFVALKKDVDAAYLNKVDLEAKANSLTDEINFLQMLFEAELCQMQTRVSDTSVVLSMDNNRSLDLDSIIAEVKAQYEEIANRSRAEAESWYQTKYEELQVTAGQHGDDLRNTKQEISETNRMIQRLRAEIDNVKKQCASLQTAIADAEQRGELALKDARAKLVDLEEALQKSKQDMARLLREYQELMNIKLALDVEIATYRKLLEGEECRLSGEGVSPVNISVVTSTVSSGYGGGSSIGSGSLGLSGGSGCSFMTSGGHSLGGSSFSNSSSRGLGGSGSSFKFVSTTSSSRKSYKH
Phenol red excretion (BD-11 20 mg/kg oral): 0.670 ± 0.082 µg/mL | Excretion of phenol red vs solvent control group (BD-11 50 mg/kg dose group, P<0.05): significantly increased the excretion of phenol red | Phenol red excretion (BD-11 50 mg/kg oral): 0.781 ± 0.043 µg/mL | Expectorant effect (summary) (dose not given): obvious expectorant effect
